Series [1] addresses T1, Pot1DBD (Schizosaccharomyces pombe, UniProt O13988 2-339).
T1 sequence: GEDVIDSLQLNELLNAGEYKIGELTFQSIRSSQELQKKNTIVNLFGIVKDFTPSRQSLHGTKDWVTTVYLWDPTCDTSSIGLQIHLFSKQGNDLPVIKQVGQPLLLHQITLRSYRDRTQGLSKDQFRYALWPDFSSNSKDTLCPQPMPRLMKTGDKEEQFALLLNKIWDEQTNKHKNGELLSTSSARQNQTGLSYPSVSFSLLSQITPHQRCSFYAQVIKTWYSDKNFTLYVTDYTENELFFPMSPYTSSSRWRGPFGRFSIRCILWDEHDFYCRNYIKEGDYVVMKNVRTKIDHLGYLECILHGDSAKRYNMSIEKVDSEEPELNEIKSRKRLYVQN
As to the kind of experiment: gel filtration; 1:1 stoichiometry; ITC: 25 mM Tris-HCl pH 8.0, 150 mM NaCl, 20 C; gel filtration (complex purification): 25 mM Tris-HCl pH 8.0, 150 mM NaCl, 5 mM DTT. Conditions: protein: recombinant; tags: His6-SUMO (N-terminal, removed with ULP1); single strand.

Series [2] addresses T2, Ccq1 (residues 123-439), without the deletion (S. pombe, UniProt Q10432 123-439).
T2 construct: The methods describe only the deleted form; this undeleted form gave crystals that diffracted to about 4.0 Å; also called N-terminal region of Ccq1
T2 sequence (looked up): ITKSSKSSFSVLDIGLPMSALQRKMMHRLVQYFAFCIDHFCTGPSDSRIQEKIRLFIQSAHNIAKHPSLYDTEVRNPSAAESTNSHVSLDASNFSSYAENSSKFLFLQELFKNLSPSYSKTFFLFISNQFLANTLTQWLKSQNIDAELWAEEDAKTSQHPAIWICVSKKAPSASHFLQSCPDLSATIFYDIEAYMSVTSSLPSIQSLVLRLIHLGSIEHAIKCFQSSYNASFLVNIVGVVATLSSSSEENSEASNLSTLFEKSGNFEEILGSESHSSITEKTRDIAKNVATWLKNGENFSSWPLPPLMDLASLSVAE
As to the kind of experiment: SEC; co-expressed and co-purified complexes on gel filtration (calibrated for Tpz1CBM-Ccq1TAD); 25 mM Tris-HCl pH 8.0, 150 mM NaCl, 5 mM dithiothreitol. Conditions: both partners purified. (In general: Size exclusion chromatography separates by hydrodynamic size, large species first.)

Series [3] concerns the target T3, Ccq1TAD (Ccq1 123-439 with deletion of residues 199-215), purified (S. pombe, UniProt Q10432 123-439, deletion of residues 199–215).
T3 construct: Two copies stand in the 2:2 complex with Tpz1CBM; not shown: His6, N-terminal, cleaved; SUMO, N-terminal, cleaved
T3 sequence (looked up): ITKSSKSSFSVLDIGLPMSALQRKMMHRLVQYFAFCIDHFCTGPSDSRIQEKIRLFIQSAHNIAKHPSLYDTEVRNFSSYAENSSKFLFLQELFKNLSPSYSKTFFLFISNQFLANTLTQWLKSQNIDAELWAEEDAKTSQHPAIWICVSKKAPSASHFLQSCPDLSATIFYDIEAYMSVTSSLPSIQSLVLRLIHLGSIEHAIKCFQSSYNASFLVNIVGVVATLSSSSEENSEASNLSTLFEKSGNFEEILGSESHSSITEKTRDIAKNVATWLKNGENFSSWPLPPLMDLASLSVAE
As to the kind of experiment: crystal structure; Tpz1CBM-Ccq1TAD complex, SAD, 2.4 Å; sitting drop at 4°C, 15% PEG4000, 200 mM potassium chloride, 50 mM magnesium chloride, 50 mM Tris-HCl pH 7.8. Conditions: both partners purified.

The target in another series is T4, Pot1 full length;Tpz1PIM (Schizosaccharomyces …, UniProt O13988;O14246 1-555;164-240, |).
T4 sequence 1: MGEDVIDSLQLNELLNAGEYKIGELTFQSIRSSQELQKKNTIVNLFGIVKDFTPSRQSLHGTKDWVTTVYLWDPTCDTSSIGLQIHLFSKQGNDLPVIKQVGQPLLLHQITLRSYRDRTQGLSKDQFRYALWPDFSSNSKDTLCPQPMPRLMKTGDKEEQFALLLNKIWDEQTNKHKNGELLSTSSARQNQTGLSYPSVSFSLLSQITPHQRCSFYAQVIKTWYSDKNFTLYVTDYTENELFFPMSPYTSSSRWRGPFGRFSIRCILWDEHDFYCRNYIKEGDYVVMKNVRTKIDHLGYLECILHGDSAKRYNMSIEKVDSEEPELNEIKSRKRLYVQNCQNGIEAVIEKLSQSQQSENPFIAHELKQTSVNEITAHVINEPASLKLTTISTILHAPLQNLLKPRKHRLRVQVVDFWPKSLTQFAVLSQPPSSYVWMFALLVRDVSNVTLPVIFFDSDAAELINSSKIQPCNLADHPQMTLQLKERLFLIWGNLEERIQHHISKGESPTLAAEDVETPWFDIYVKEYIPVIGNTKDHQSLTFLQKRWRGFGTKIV
T4 sequence 2: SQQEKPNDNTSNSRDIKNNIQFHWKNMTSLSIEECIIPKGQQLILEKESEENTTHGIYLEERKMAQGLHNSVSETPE
As to the kind of experiment: complex reconstitution; stable complex after mixing with Tel18; ITC: 25 mM Tris-HCl pH 8.0, 150 mM NaCl, 20 C; gel filtration (complex purification): 25 mM Tris-HCl pH 8.0, 150 mM NaCl, 5 mM DTT. Conditions: protein: recombinant;recombinant, tags: His6-SUMO/GST system, co-expressed with Tpz1PIM;His6-SUMO/GST system, copies: 1;1, single strand.

The target of series [4] is T1, Pot1DBD. As to the kind of experiment: ITC; Kd only in figure; ITC: 25 mM Tris-HCl pH 8.0, 150 mM NaCl, 20 C; gel filtration (complex purification): 25 mM Tris-HCl pH 8.0, 150 mM NaCl, 5 mM DTT. Conditions: protein: recombinant; tags: His6-SUMO (N-terminal, removed with ULP1); single strand. On the technique in general: ITC needs no label: the signal is the heat of the interaction.

B1: Tel17 (ssDNA)
DNA: GGTTACAGGGTTACGGT
With B1, in the series with Pot1DBD [1], the binding result was “binds”.

B2: Tpz1CBM (Tpz1 425-470), purified (domain or fragment, S. pombe, UniProt O14246 425-470, looked up)
chain: EQIELEYKRKPIPDYDFMKGLETTLQELYVEHQSKKRRLELFQLTN
notes: not shown: GST, N-terminal, cleaved
As for B2, in series [2], the binding result was “binds”. Besides, in series [3], the stoichiometry N (usually a count of units in the complex or per binding partner) was 1 Tpz1CBM per Ccq1TAD (printed as 2:2).

B3: Tel18 (ssDNA)
DNA: GGTTACAGGGGTTACGGT
On to B3, for which the binding result with Pot1 full length;Tpz1PIM and with Pot1DBD [4] was “binds” throughout.

B4: Tel15 (ssDNA)
DNA: GGTTACGGTTACGGT
As for B4, the binding result in the series with Pot1DBD [4] is given as “binds”.

The values above are taken from paper PMC9333443, “Structural insights into Pot1-ssDNA, Pot1-Tpz1 and Tpz1-Ccq1 Interactions within fission yeast shelterin complex” (PLoS Genetics, 2022).
